The values that follow come from patent publication US6475744 (GENERAL HOSPITAL CORPORATION A MASSACHUSETTS, dated 2002).

The labels stand for the following.
B1: mTIM-V5 (other, not shown: small tags and cut ends)
chain: MDLYMMNCELLATCSALGYLEGGTYHKEPDCLESVKDLIRYLRHEDETRDVRQQLGAAQILQSDLLPILTQHRQDKPLFDAVIRLMVNLTQPALLCFGSVPKDSSVRHHFLQVLTYLQAYKEAFASEKAFGVLSETLYELLQLGWEDRQEEDNLLIERILLLVRNILHVPANLEQEKSIDDDASIHDRLLWAIHLSGMDDLLLFLSSSSAEQQWSLHVLEIISLMFRDQTPEQLAGVGQGRLAQERSTDVAELEVLRQREMAEKRARALQRGNRHSRFGGSYIVQGLKSIGEKDVVFHKGLHNLQNYSSDLGKQPRRVPKRRQAAQELSVHRRSVLNVRLFLRDFCSEFLENCYNPLMGAVKDHLLRERAQQHDETYYMWAMAFFMAFNRAATFRPGLVSETLSIRTFHFVEQNLTNYYEMMLTDRKEAASWARRMHLALKAYQELLATVNEMDMCPDEAVRESSRIIKNNIFYMMEYRELFLALFRKFDERYHPRSFLRDLVETTHLFLKMLERFCRSRGNLMVQNKRKKRKKKKKVQDQGVAFSQSPGELEAMWPALAEQLLQCAQDPELSVDPVVPFDAASEVPVEEQRVEAMVRIQDCLTAGQAPQALALLRSAREVWPEGNAFGSPVISPGEEMQLLKQILSTPLPRQQEPEEGDAEEEEEEEEEEELQVVQVSEKEFNFLEYLKRFASSTIVRAYVLLLRSYRQNSAHTNHCIAKMLHRLAHGLGMEALLFQLSLFCLFNRLLSDPAAAAYKELVTFAKYIIGKFFALAAVNQKAFVELLFWKNTAVVREMTQGYGSLDSGSSSHRAPLWSPEEEAQLQELYLAHKDVEGQDVVETILAHLKVVPRTRKQVIHHLVRMGLADSVKEFQKRKGTQIVLWTEDQELELQRLFEEFRDSDDVLGQIMKNITAKRSRARVVDKLLALGLVSERRQLYKKRRKKLAPSCMQNGEKSPRDPWQEDPEEEDEHLPEDESEDEESEEGLPSGQGQGSSSLSAENLGESLRQEGLSAPLLWLQSSLIRAANDREEDGCSQAIPLVPLTEENEEAMENEQFQHLLRKLGIRPPSSGQETFWRIPAKLSSTQLRRVAASLSQQENEEEREEEPEPGVPGEQGPSEEHRTEALRALLSARKRKAGLGPTEEEATGEEEWNSAPKKRQLLDSDEEEDDEGRRQAVSGTPRVHRKKRFQIEDEDD
notes: the construct was made from the coding region of AF071506; Printed once as 'mTIM-VS', read as V5; also called mTIM-VS

One test concerns the target T1, mPER1-HA (mouse, UniProt O35973 1-1291).
T1 construct: Expressed in COS7 cells; used in place of mPER3-HA in co-immunoprecipitation
The test is described as follows: co-immunoprecipitation from co-transfected COS7 cells, anti-HA IP, anti-V5 blot. The protocol: (§1) Subsequently, the beads were washed four times (400 μl binding buffer for 10 min. per wash), mixed with 5 μl of 4×sodium dodecyl sulfate (SDS) gel loading buffer, boiled, and centrifuged. The supernatant was analyzed by SDS-polyacrylamide gel electrophoresis (PAGE) and western blotted as follows. Total protein (5 μg) from COS7 cells was extracted as described above, separated by SDS-PAGE, and transferred to a nitrocellulose membrane using a semi-dry blotting apparatus. Membranes were blocked with 5% non-fat milk. Blots were incubated with either the mouse anti-HA antibody (1:10,000) or the mouse anti-V5 antibody (1:5,000) overnight at 4EC. A goat anti-mouse horseradish peroxidase secondary antibody (1:10,000) was used in combination with enhanced chemiluminescence (NEN) to detect proteins.
(§2) Following detection of epitope-tagged proteins with one antibody, the blots were stripped in stripping buffer (62.5 mM Tris-HCl (pH 6.7), 100 mM 2-mercaptoethanol, 2% SDS) at 50EC for 30 minutes. The membrane was washed extensively (20 mM Tris, pH 7.6, 137 mM NaCl, 0.05% Tween-20) then blocked again and processed for detection of the second epitope-tagged protein.

In the next test the target is T2, βgalactosidase (UniProt P00722 1-1024 = β-galactosidase, limits assumed).
T2 construct: Construct not described; also called specificity control
The test is described as follows: co-immunoprecipitation from co-transfected COS7 cells, anti-HA IP.

For the test “mTIM-V5”, the target named is B1. The test is described as follows: co-immunoprecipitation from co-transfected COS7 cells, anti-HA IP, anti-V5 blot. The protocol:
as §1, §2

T2 sequence (P00722 whole entry): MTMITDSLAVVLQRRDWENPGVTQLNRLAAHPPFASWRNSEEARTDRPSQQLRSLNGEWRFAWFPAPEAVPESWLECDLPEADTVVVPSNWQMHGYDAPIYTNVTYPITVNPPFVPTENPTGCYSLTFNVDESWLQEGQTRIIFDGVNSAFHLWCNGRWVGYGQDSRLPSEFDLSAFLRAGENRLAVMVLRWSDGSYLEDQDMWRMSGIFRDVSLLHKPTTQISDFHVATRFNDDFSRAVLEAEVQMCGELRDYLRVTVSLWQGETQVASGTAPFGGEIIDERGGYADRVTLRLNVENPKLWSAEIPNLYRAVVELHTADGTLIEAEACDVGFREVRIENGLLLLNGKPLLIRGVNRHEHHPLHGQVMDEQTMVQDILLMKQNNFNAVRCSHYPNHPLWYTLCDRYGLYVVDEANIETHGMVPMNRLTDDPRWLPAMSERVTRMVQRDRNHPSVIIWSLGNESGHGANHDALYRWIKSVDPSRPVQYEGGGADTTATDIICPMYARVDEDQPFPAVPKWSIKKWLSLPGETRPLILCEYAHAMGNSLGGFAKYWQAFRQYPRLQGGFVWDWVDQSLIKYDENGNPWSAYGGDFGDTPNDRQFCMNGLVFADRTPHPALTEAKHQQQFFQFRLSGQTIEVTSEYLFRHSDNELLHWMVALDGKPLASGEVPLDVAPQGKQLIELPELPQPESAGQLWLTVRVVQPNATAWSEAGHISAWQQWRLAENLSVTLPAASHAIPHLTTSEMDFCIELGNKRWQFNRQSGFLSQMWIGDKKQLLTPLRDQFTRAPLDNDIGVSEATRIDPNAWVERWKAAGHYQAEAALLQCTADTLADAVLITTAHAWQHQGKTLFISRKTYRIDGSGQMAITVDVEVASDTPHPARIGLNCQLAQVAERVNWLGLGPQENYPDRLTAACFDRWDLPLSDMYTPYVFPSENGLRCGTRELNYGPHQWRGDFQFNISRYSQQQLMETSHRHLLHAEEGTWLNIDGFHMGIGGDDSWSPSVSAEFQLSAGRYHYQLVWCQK
T1 sequence (O35973 whole entry): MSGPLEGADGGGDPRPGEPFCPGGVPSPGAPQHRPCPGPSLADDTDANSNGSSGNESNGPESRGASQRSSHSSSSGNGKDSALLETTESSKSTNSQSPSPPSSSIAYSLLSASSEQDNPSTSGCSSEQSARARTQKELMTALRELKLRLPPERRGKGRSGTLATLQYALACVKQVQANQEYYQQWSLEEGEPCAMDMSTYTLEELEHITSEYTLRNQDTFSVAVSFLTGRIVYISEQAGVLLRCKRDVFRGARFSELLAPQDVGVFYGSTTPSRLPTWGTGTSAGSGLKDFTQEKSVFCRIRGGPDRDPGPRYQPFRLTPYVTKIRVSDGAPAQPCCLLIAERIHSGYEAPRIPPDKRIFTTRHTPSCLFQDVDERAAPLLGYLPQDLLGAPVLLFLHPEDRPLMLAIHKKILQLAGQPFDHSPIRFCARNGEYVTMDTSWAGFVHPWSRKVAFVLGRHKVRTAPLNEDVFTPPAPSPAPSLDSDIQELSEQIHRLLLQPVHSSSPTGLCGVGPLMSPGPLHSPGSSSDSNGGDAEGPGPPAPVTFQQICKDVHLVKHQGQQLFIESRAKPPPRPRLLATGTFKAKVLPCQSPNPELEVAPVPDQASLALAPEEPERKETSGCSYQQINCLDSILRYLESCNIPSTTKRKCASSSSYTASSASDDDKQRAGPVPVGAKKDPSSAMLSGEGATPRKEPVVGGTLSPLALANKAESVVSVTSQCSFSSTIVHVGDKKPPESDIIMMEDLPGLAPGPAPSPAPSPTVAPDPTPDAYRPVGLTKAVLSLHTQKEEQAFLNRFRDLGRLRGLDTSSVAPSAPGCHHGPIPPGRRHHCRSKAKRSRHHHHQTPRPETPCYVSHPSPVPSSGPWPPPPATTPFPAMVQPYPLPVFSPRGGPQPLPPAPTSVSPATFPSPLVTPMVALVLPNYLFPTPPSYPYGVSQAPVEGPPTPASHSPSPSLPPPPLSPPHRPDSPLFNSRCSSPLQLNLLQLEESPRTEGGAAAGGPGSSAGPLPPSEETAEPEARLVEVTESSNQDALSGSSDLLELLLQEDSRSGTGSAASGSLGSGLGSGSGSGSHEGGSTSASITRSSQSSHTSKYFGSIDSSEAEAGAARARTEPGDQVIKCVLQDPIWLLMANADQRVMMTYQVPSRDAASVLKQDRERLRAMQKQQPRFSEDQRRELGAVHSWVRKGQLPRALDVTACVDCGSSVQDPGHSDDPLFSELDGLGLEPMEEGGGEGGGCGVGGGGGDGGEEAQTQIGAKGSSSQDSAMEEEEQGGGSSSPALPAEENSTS

With B1, the binding result in the test with mPER1-HA is “no binding”.

B2: mCRY1-HA (other, mouse, UniProt P97784 1-606, looked up, not shown: small tags and cut ends)
chain: MGVNAVHWFRKGLRLHDNPALKECIQGADTIRCVYILDPWFAGSSNVGINRWRFLLQCLEDLDANLRKLNSRLFVIRGQPADVFPRLFKEWNITKLSIEYDSEPFGKERDAAIKKLATEAGVEVIVRISHTLYDLDKIIELNGGQPPLTYKRFQTLVSKMEPLEMPADTITSDVIGKCMTPLSDDHDEKYGVPSLEELGFDTDGLSSAVWPGGETEALTRLERHLERKAWVANFERPRMNANSLLASPTGLSPYLRFGCLSCRLFYFKLTDLYKKVKKNSSPPLSLYGQLLWREFFYTAATNNPRFDKMEGNPICVQIPWDKNPEALAKWAEGRTGFPWIDAIMTQLRQEGWIHHLARHAVACFLTRGDLWISWEEGMKVFEELLLDADWSINAGSWMWLSCSSFFQQFFHCYCPVGFGRRTDPNGDYIRRYLPVLRGFPAKYIYDPWNAPEGIQKVAKCLIGVNYPKPMVNHAEASRLNIERMKQIYQQLSRYRGLGLLASVPSNSNGNGGLMGYAPGENVPSCSSSGNGGLMGYAPGENVPSCSGGNCSQGSGILHYAHGDSQQTHSLKQGRSSAGTGLSSGKRPSQEEDAQSVGPKVQRQSSN
On to B2, for which, in the test with βgalactosidase, the binding result was “no binding”.

B3: mPER3-HA (other, mouse, UniProt O70361 1-1113, looked up, not shown: small tags and cut ends)
chain: MDPCGDPAVPGGDCPQTRGPGLQGASGQEGPLQGTCVDSSHSEHEDRNRMSEELIMVVQEMKKYFPAERHTKPSTLDALNYALRCVHSVQANSDFFQSLGPRGAHQADVTVYSLEDLTALASEHTSKNTDTFAAVFSFLSGRLVHISEQAALILNSKRGFLKSVHFVDLLAPQDVRAFYAHTAPTQLPFWNNWTQRASQYECAPAKPFFCRICGGGDREKRHYSPFRILPYLVHVHSSAQPEPEPCCLTLVEKIHSGYEAPRIPVDKRIFTTTHTPGCVFLEVDERAVPLLGYLPQDLIGTSILTYLHPEDRPLMVAIHQKVLKYAGHPPFEHSPVRFCTQNGEYVILDSSWSSFVNPWSRKVSFIIGRHKVRTSPLNEDVFATRIKKAASNDKDIAELQEQIHKLLLQPVHASASSGYGSLGSSGSQEQHVSITSSSESSGHCPEEGQHEQMTLQQVYASVNKIKNVGQQLYIESMARSSVKPVAETCVEPQGGDEQKDFSSSQTLKNKSTTDTGSGGNLQQEQPSSSYQQMNCIDSVIRYLTSYSLPALKRKCISCTNTSSSSEEAKPIPEVDSSQRDTEQLLDIRKQETTGPSTDIEGGAARTLSTAALSVASGISQCSCSSTSGHAPPLQSESVAVACKPWALRTKASHLAAGGFKHVGLTAAVLSAHTQKEEQNYVDRFREKILTSPYGCYLQQESRNRAQYSCVQAGSTAKHSRCAGSERQKHKRKKLPAPVDTSSPGAHLCPHVTGLLPDEQHWGPSASPSPLGAGLAFPSALVVPSQTPYLLPSFPLQDMASQGVGVSAAWGAAAGCPPLSAGPQAVAAFPSAYVDTLMTIFLHNAPLFPLWPPSFSPYPSLGAAGSSELAPLVPAMAPNPEPTTSGHSQRRVEENWEAHSEELPFISSRSSSPLQLNLLQEEMPAPSESADAVRRGAGPDAKHHCVTGPSGSRSRHCTSGELATATAQQESAAASGSSASSIYFSSTDYASEVSENRQRPQDRQRDEALPGAAEESIWRMIERTPECVLMTYQVPERGREEVLKQDLEKLQSMEQQQPLFSPAQREELAKVRSWIHSHTAPQEGHLQSCVACEDRGSVGDTAEVLEQHPAEDTS
notes: Expressed in COS7 cells from pcDNA 3.1; immunoprecipitated with anti-HA antibody
Turning to B3, the binding result with mTIM-V5 is given as “no binding”.
